# Publication PMC2959089, “The intriguing Cyclophilin A-HIV-1 Vpr interaction: prolyl cis/trans isomerisation catalysis and specific binding” (BMC Structural Biology, 2010)
# Biological target: T1, recombinant human Cyclophilin A (CypA) (human, UniProt P62937 1-165)
# T1 construct: also called human peptidyl prolyl isomerase CypA; source: E. coli BL21(DE3), pET11c, purified (DEAE-Sepharose flow-through, MonoS cation exchange)
# Experiment: SPR
# Details: both partners purified
# T1 sequence (P62937 whole entry): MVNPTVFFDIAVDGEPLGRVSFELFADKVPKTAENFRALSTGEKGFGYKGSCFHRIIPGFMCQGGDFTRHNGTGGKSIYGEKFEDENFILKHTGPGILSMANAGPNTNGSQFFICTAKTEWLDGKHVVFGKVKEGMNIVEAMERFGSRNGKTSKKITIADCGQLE
Binder,Kd [µM],"ka1 (two-state model, association) [M⁻¹ s⁻¹]","ka2 (two-state model, forward rate) [s⁻¹]","kd1 (two-state model, dissociation) [s⁻¹]","kd2 (two-state model, backward rate) [s⁻¹]"
AVRHFPRIWLH (source: synthetic peptide) [synthetic HIV-1 Vpr peptide sVpr^30-40],167,2470,0.00145,0.527,0.0053
HFPRI (source: synthetic peptide) [synthetic HIV-1 Vpr peptide sVpr^33-37],3570,120,0.00138,0.66,0.0025
ELKSEAVRHFPRIWLH (source: synthetic peptide) [synthetic HIV-1 Vpr peptide sVpr^25-40],404,2000,0.0028,0.942,0.0173
ELLEELKSEAVRHFPRIWLH (source: synthetic peptide) [synthetic HIV-1 Vpr peptide sVpr^21-40],201,466,0.0084,0.164,0.011
RHFPRIW (source: synthetic peptide) [synthetic HIV-1 Vpr peptide sVpr^32-38],487,924,0.0011,0.67,0.0023
